Data reported in patent US20220378827A1 (EMORY UNIVERSITY, published 2022).

Target: T1, CD5 antigen on T cells (Jurkat, Molt-4, gamma delta T cells) (UniProt P06127 25-495, limits assumed)
T1 sequence (looked up): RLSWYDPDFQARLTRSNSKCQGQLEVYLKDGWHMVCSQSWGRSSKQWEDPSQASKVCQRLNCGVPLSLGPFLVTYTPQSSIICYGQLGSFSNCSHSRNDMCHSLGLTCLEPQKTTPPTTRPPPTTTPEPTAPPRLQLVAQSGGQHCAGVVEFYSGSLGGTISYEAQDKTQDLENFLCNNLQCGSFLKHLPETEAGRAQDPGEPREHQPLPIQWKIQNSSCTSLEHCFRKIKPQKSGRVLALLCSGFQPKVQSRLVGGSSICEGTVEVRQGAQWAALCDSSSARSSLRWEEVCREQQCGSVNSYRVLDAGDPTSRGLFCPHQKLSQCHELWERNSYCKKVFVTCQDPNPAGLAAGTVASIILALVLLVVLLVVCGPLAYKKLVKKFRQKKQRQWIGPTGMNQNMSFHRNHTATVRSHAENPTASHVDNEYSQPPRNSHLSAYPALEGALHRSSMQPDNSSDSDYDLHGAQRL
Assay: cell-based or functional assay

B1: CD5-NSCAR (CD5 scFv non-signaling chimeric antigen receptor) (other)
chain: GAPEIQLVQSGGGLVKPGGSVRISCAASGYTFTNYGMNWVRQAPGKGLEWMGWINTHTGEPTYADSFKGRFTFSLDDSKNTAYLQINSLRAEDTAVYFCTRRGYDWYFDVWGQGTTVTVSSGGGGSGGGGSGGGGSDIQMTQSPSSLSASVGDRVTITCRASQDINSYLSWFQQKPGKAPKTLIYRANRLESGVPSRFSGSGSGTDYTLTISSLQYEDFGIYYCQQYDESPWTFGGGTKLEIKASEQKLISEEDLDNEKSNGTIIHVKGKHLCPSPLFPGPSKPFWVLVVVGGVLACYSLLVTVAFIIFWVRSEWPGKVR
  CD5 expression on non-modified Jurkat T cells in co-culture with CD5-NSCAR-modified Jurkat T cells, 1:1 ratio: < 20%
